{"source": "patent US20250108100A1", "about": "“C-TERMINAL FRAGMENT OF APOLIPOPROTEIN E AND APPLICATION THEREOF IN INHIBITING y-SECRETASE ACTIVITY” (SYNPHATEC (SHANGHAI) BIOPHARMACEUTICAL TECHNOLOGY CO., LTD., priority 2022, published 2025)", "key": {"[1]": {"tested_on": "human APP and β-secretase co-expressed in HEK 293T cells", "assay": "HEK 293T cells co-expressing APP and β-secretase (BACE1): Aβ ELISA and β-CTF Western blot", "assay_type": "cell-based", "description": "The experiment was performed according to the standard procedure in the ELISA analysis kit of Invitrogen Company. • a) The target protein was expressed in HEK 293T cell line. Cells were subcultured one day before transfection, and transfection was performed when the degree of cell adhesion reached 70%-80%. The transfection reagent was lipofectamine2000 (ThermoFisher). • b) 4-6 hours post transfection, medium were replaced with fresh cell culture medium. • c) 36-48 hours post transfection, the cell culture medium was collected, and then the ELISA process was performed or the cell culture medium was frozen in a −80° C. refrigerator. • d) 50 μl of standard samples and experimental samples were added to each well of the 96-well plate. • e) 50 μl of human-derived Aβ40 or Aβ42 or mouse-derived Aβ40 detection antibody was added to each well of the 96-well plate. • f) The above samples were shaken gently and placed at room temperature for 3 hours. • g) The liquid in the well were removed, and the plate was washed 4 times with 1× wash buffer. • h) 100 μl of the buffer containing 1× anti-Rabbit IgG HRP was added. • i) The plate was shaken gently and placed at room temperature for […]. • j) The liquid in the well were removed, and the well was washed 4 times with 1× wash buffer. • k) 100 μl of Stabilized Chromogen was added to each well, and the plate was placed in the dark for 30 minutes at room temperature. • l) 100 μl of Stop Solution was added to each well. • m) The absorbance at 450 nm was measured with a microplate reader. 2.4 qRT-PCR\n48 hours after transfection of HEK 293T cells and N2A cells, or 4.5 days after lentivirus infection of neurons, media and lysates were collected. Aβ40 and Aβ42 in the culture medium and cell lysates were detected by an Aβ ELISA kit as indicated in the protocol. (Invitrogen Technology; KHB3481 for human Aβ40, KHB3441 for human Aβ42 and KMB3481 for mouse Aβ40).\nData were analyzed by GraphPad Prism software (v6) using unpaired, paired, or one-sample t-tests. Aβ40 and Aβ42 levels were normalized to the corresponding GFP controls. α-CTF levels were normalized to FL-APP and corresponding GFP controls. All data are represented as mean±SEM. Statistical significance was defined as p<0.05. One, two, three and four stars (*) in the graph indicate p-values <0.05, <0.01, <0.001 and <0.0001, respectively."}, "[2]": {"tested_on": "ADAM10, BACE1, PS1 and PS2", "assay": "mRNA (qRT-PCR) and protein (Western blot) expression of APP secretases in HEK 293T cells", "assay_type": "cell-based, human", "description": "• a) A plasmid expressing the target protein in mammalian cells was constructed, and the protein expression promoter is CAG. • b) The target protein was expressed in HEK 293T cell line. Cells were subcultured one day before transfection, and transfection was performed when the degree of cell adhesion reached 70%-80%. The transfection reagent was lipofectamine2000 (ThermoFisher). • c) 4-6 hours post transfection, the medium were replaced with fresh cell culture medium. • d) 36-48 hours post transfection, the cells were lysed (10% 1M tris-HCl (pH=6.8), 4% SDS, 20% glycerol, 0.01% bromophenol blue), and the protein samples were collected and used for Western blot or stored in a −80° C. freezer. • e) Polyacrylamide gel electrophoresis. Before protein loading, the protein was boiled at 98° C. for 10 min, and then centrifuged at 12000 rpm for 10 min. Electrophoresis: 80V for the upper stacking gel; 120V for the lower separating gel. • f) Protein transfer. The filter paper was soaked in the electrophoresis solution before use, and the PVDF membrane was put in methanol for 10s to activate, and the gel after electrophoresis was taken out from the electrophoresis tank, put in the order of filter paper—PVD membrane—gel-filter paper from bottom to top, and they were put into the transfer instrument, with transferring in constant current at 0.1 A for 70 min. • g) Blocking and antibody incubation: the transferred PVDF membrane was placed in 5% BSA/TBST blocking solution, and blocked on a shaker at room temperature for 1 hour. The primary antibody was used to incubate at 4° C. overnight on a shaker (12-16 h); 1×TBST was used to wash three times, once every 10 minutes; the secondary antibody was used to incubate, shaked at room temperature for 1-2 h; 1×TBST was used to wash three times, once every 10 minutes. • h) Imaging by development: development was performed with ECL chemiluminescence hypersensitive chromogenic reagent. […]\nQuantitect SYBR-Green qRT-PCR kit from Qiagen was used to quantitatively analyze the relative content of mRNA. qRT-PCR primers were listed in Table 2. […]"}}, "note": "Entries after “also recorded” stand apart in the source; their conditions may differ.", "data": [{"molecule": "ApoE CT: C-terminal fragment of ApoE, positions 216-299 of SEQ ID NO: 12; SEQ ID NO: 33 (protein) ARMEEMGSRTRDRLDEVKEQVAEVRAKLEEQAQQIRLQAEAFQARLKSWFEPLVEDMQRQWAGLVEKVQAAVGTSAAPVPSDNH", "values": [{"measurement": "Aβ40 in the presence of GI254023X", "setting": "[1]; APP and BACE1, 1 μM GI254023X", "value": "decrease Aβ40"}, {"measurement": "β-CTF levels", "setting": "[1]; APP and BACE1, Western blot", "value": "did not alter β-CTF levels"}, {"measurement": "production of Aβ40", "setting": "[1]; APP and β-secretase co-expressed, ELISA, vs GFP control", "value": "decreased Aβ40"}, {"measurement": "Aβ40 in cell lysates, decreased by", "setting": "[1]; APP, BACE1", "value": "about 42%"}, {"measurement": "Aβ40 secreted into the cell culture medium, reduced by", "setting": "[1]; APP, BACE1", "value": "about 75%"}, {"measurement": "Aβ42, reduced by", "setting": "[1]; APP, BACE1", "value": "about 74%"}, {"measurement": "ratio of Aβ42/Aβ40", "setting": "[1]; APP, BACE1", "value": "remains unchanged"}, {"measurement": "Aβ40", "setting": "[1]; ELISA", "value": "25 % of GFP control"}, {"measurement": "Aβ42", "setting": "[1]; ELISA", "value": "about 26 % of GFP control"}, {"measurement": "protein expression of APP metabolizing enzymes", "setting": "[2]; Western blot", "value": "does not affect the protein expression"}, {"measurement": "mRNA expression of APP metabolizing enzymes", "setting": "[2]; qRT-PCR", "value": "does not affect the mRNA expression"}, {"measurement": "mRNA and protein expression of ADAM10, BACE1, PS1 and PS2", "setting": "[2]; qRT-PCR and Western blot, vs GFP control", "value": "does not change the mRNA and protein expression; also recorded: not altered"}]}]}
